Measured values from the supplement of paper PMC10065799, “High-throughput profiling of sequence recognition by tyrosine kinases and SH2 domains using bacterial peptide display” (eLife, 2023).

target: Jak2 (UniProt O60674); experiment: phosphorylation enrichment, bacterial display (enrichment ratio); higher = better substrate or ligand; peptides without Tyr show the background
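Also: 11-residue human phosphosite peptides and single-mutation variants displayed on the E. coli surface, counted by deep sequencing, each peptide's frequency after selection divided by its frequency in the unselected input library; frequency after pTyr selection over input frequency; kinase dosed for 20-30% of maximal phosphorylation in three min.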

Jak2, sequence (O60674 whole entry, looked up): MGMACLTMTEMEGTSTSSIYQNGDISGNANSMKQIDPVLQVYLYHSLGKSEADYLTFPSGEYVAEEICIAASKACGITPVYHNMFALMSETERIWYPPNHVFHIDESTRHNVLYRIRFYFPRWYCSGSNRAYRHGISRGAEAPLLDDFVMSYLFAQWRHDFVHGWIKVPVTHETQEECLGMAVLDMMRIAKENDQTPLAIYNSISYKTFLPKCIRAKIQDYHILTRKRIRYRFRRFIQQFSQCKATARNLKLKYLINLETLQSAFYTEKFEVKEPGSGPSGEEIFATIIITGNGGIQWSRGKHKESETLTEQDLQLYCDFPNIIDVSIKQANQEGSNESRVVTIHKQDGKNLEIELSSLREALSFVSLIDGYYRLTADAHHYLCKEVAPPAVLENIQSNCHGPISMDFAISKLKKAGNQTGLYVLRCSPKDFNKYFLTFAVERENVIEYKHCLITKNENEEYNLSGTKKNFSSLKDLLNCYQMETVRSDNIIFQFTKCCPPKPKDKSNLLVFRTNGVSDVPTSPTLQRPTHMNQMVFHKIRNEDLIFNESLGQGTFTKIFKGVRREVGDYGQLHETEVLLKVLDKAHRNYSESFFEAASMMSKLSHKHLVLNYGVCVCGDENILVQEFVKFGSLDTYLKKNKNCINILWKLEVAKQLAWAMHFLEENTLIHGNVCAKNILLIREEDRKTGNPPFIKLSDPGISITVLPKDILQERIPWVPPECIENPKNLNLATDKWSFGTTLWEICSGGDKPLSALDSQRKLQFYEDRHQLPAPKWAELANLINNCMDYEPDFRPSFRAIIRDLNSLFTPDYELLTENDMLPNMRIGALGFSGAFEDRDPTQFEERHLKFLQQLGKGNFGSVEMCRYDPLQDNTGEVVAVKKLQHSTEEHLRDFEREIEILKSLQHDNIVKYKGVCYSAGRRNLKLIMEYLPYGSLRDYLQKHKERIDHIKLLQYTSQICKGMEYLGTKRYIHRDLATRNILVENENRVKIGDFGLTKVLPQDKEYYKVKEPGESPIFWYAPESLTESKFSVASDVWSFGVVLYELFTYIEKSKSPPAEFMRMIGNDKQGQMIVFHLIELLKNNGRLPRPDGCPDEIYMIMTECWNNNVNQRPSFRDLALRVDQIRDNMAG

Sequence	phosphorylation enrichment
ELANLYHHVCM [BICD2_Y538]	1.23
GVRFTYTIDGS [DCX_Y105_I104T_YF]	1.24
EQLRAYLEGTC [HLA-C_Y183]	0.866
SLMNQYVNKEF [RAB7A_Y28_K32E]	0.442
KGSEGYLAAIF [NF1_Y2503_T2507I_YF]	0.815
DLSEVYKPRRK [CCDC93_Y176]	0.574
GIYKDYYRYNF [PLA2G2D_Y85_S80G]	7.91
KDFETYQSFQN [CTNND2_Y1157_P1159S_YF]	0.798
RRNEEYCLLAS [ITK_Y198_D202A]	0.741
PVGVLYKVKVY [PTS_Y128]	1.52
KGEDFYCVTFH [FHL1_Y149_C153Y_YF]	1.21
RRIHSYRGRLW [VHL_Y112_H115R]	0.68
FGLQAYTEVKT [ALDH2_Y502_YF]	1.13
PELINYHQHFS [BTK_Y361_N365Y_YF]	0.869
LREKVYVSLEA [RXRA_Y397_A398V]	0.723
ADKSVYLMGLN [MYH7_Y386_A385V]	0.51
SLNEVYTKNKT [MSH2_Y563_E562V]	0.514

Sequence	phosphorylation enrichment
DGTESYHTVSS [PLK1_Y462_L463H]	0.52
PTTKTYFPHFF [HBA1_Y43_D48Y_YF]	0.569
LKALHYMVQTS [SACS_Y3367]	0.653
TIQIMYGCDVG [HLA-A_Y123]	1.64
GKSFIYAAFHA [KCNT1_Y563_T562I]	1.32
GSSSSCGQHGS [HRNR_Y517_Y517C]	0.448
RRIHSYRGQLW [VHL_Y112_H115Q]	0.925
KSVVTYSPTTG [ITGB3BP_Y32_I30V]	0.489
KILGRYFETSS [PAX2_Y72_G76S_YF]	0.706
DTDSSYCIPIA [GAB1_Y373_T377I]	0.925
CKRQFYLFKGK [RSPO4_Y112_YF]	0.745
ESDYTYSSSYE [SRPK2_Y427]	0.852
DRQASYLDKVR [KRT16_Y131_L128Q]	0.609
CGPLLYGLVHQ [PRKCG_Y122_S119P]	1.06
PNQRRYVFFFS [PTEN_Y174_S170N_YF]	1.22
GHEFIYVDRMQ [PDGFRB_Y581_P584R_YF]	0.541

target: Fyn (UniProt P06241); experiment: as above
Sequence (P06241 whole entry, looked up): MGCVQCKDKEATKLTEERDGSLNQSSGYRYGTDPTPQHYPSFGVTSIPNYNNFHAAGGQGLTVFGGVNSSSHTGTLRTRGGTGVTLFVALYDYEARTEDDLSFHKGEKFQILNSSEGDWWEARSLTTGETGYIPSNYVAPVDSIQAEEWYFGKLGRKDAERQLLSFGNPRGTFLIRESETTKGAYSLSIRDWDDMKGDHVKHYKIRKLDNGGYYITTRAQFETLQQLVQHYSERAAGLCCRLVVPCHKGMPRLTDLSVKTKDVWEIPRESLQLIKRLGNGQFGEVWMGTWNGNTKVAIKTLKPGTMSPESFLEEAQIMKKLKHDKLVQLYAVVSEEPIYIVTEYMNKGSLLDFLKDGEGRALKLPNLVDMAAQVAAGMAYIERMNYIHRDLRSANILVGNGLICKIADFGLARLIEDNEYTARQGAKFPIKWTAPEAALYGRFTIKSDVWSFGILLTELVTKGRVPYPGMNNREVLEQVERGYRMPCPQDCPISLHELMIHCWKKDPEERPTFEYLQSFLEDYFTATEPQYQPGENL

Sequence	phosphorylation enrichment
ELANLYHHVCM [BICD2_Y538]	0.869
GVRFTYTIDGS [DCX_Y105_I104T_YF]	0.426
EQLRAYLEGTC [HLA-C_Y183]	0.453
SLMNQYVNKEF [RAB7A_Y28_K32E]	0.461
KGSEGYLAAIF [NF1_Y2503_T2507I_YF]	0.421
DLSEVYKPRRK [CCDC93_Y176]	0.579
GIYKDYYRYNF [PLA2G2D_Y85_S80G]	5
KDFETYQSFQN [CTNND2_Y1157_P1159S_YF]	6.89
RRNEEYCLLAS [ITK_Y198_D202A]	0.536
PVGVLYKVKVY [PTS_Y128]	0.652
KGEDFYCVTFH [FHL1_Y149_C153Y_YF]	1.78
RRIHSYRGRLW [VHL_Y112_H115R]	0.547
FGLQAYTEVKT [ALDH2_Y502_YF]	0.498
PELINYHQHFS [BTK_Y361_N365Y_YF]	0.547
LREKVYVSLEA [RXRA_Y397_A398V]	1.36
ADKSVYLMGLN [MYH7_Y386_A385V]	0.583
SLNEVYTKNKT [MSH2_Y563_E562V]	0.411

Sequence	phosphorylation enrichment
DGTESYHTVSS [PLK1_Y462_L463H]	0.433
PTTKTYFPHFF [HBA1_Y43_D48Y_YF]	0.723
LKALHYMVQTS [SACS_Y3367]	0.362
TIQIMYGCDVG [HLA-A_Y123]	0.438
GKSFIYAAFHA [KCNT1_Y563_T562I]	4.67
GSSSSCGQHGS [HRNR_Y517_Y517C]	0.4
RRIHSYRGQLW [VHL_Y112_H115Q]	0.883
KSVVTYSPTTG [ITGB3BP_Y32_I30V]	0.401
KILGRYFETSS [PAX2_Y72_G76S_YF]	0.374
DTDSSYCIPIA [GAB1_Y373_T377I]	0.467
CKRQFYLFKGK [RSPO4_Y112_YF]	0.431
ESDYTYSSSYE [SRPK2_Y427]	1.11
DRQASYLDKVR [KRT16_Y131_L128Q]	0.418
CGPLLYGLVHQ [PRKCG_Y122_S119P]	3.72
PNQRRYVFFFS [PTEN_Y174_S170N_YF]	0.524
GHEFIYVDRMQ [PDGFRB_Y581_P584R_YF]	1.42

target: Fes (UniProt P07332); experiment: as above
Sequence (P07332 whole entry, looked up): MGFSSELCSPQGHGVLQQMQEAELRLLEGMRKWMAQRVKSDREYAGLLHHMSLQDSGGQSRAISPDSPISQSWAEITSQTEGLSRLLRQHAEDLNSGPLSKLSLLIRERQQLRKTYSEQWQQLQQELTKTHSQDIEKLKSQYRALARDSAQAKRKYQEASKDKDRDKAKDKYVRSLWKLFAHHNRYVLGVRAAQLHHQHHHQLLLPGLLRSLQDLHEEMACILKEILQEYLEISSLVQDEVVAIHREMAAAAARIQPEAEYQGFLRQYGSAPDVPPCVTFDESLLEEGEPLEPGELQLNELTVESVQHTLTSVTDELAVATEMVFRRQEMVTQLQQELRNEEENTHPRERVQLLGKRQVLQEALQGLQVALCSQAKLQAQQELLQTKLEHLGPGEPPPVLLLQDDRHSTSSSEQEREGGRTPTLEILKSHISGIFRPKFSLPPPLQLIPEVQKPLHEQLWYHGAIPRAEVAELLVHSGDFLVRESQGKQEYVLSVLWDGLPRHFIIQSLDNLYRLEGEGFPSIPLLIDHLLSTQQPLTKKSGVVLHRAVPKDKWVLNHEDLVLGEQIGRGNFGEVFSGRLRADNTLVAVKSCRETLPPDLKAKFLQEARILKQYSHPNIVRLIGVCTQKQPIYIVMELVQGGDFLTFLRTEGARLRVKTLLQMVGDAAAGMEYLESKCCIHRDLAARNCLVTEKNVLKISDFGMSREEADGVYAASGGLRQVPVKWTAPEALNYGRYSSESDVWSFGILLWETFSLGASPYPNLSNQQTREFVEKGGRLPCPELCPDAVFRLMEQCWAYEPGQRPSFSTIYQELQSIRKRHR

Sequence	phosphorylation enrichment
ELANLYHHVCM [BICD2_Y538]	1.05
GVRFTYTIDGS [DCX_Y105_I104T_YF]	1.33
EQLRAYLEGTC [HLA-C_Y183]	1.08
SLMNQYVNKEF [RAB7A_Y28_K32E]	0.66
KGSEGYLAAIF [NF1_Y2503_T2507I_YF]	0.83
DLSEVYKPRRK [CCDC93_Y176]	0.623
GIYKDYYRYNF [PLA2G2D_Y85_S80G]	0.805
KDFETYQSFQN [CTNND2_Y1157_P1159S_YF]	0.984
RRNEEYCLLAS [ITK_Y198_D202A]	0.924
PVGVLYKVKVY [PTS_Y128]	1.79
KGEDFYCVTFH [FHL1_Y149_C153Y_YF]	1.48
RRIHSYRGRLW [VHL_Y112_H115R]	0.771
FGLQAYTEVKT [ALDH2_Y502_YF]	1.34
PELINYHQHFS [BTK_Y361_N365Y_YF]	0.869
LREKVYVSLEA [RXRA_Y397_A398V]	0.794
ADKSVYLMGLN [MYH7_Y386_A385V]	0.769
SLNEVYTKNKT [MSH2_Y563_E562V]	0.727

Sequence	phosphorylation enrichment
DGTESYHTVSS [PLK1_Y462_L463H]	0.682
PTTKTYFPHFF [HBA1_Y43_D48Y_YF]	0.584
LKALHYMVQTS [SACS_Y3367]	0.858
TIQIMYGCDVG [HLA-A_Y123]	1.43
GKSFIYAAFHA [KCNT1_Y563_T562I]	1.25
GSSSSCGQHGS [HRNR_Y517_Y517C]	0.622
RRIHSYRGQLW [VHL_Y112_H115Q]	0.813
KSVVTYSPTTG [ITGB3BP_Y32_I30V]	0.527
KILGRYFETSS [PAX2_Y72_G76S_YF]	0.694
DTDSSYCIPIA [GAB1_Y373_T377I]	1.05
CKRQFYLFKGK [RSPO4_Y112_YF]	1.01
ESDYTYSSSYE [SRPK2_Y427]	1.15
DRQASYLDKVR [KRT16_Y131_L128Q]	0.662
CGPLLYGLVHQ [PRKCG_Y122_S119P]	1.16
PNQRRYVFFFS [PTEN_Y174_S170N_YF]	1.65
GHEFIYVDRMQ [PDGFRB_Y581_P584R_YF]	0.836

target: MERTK (UniProt Q12866); experiment: as above
Sequence (Q12866 whole entry, looked up): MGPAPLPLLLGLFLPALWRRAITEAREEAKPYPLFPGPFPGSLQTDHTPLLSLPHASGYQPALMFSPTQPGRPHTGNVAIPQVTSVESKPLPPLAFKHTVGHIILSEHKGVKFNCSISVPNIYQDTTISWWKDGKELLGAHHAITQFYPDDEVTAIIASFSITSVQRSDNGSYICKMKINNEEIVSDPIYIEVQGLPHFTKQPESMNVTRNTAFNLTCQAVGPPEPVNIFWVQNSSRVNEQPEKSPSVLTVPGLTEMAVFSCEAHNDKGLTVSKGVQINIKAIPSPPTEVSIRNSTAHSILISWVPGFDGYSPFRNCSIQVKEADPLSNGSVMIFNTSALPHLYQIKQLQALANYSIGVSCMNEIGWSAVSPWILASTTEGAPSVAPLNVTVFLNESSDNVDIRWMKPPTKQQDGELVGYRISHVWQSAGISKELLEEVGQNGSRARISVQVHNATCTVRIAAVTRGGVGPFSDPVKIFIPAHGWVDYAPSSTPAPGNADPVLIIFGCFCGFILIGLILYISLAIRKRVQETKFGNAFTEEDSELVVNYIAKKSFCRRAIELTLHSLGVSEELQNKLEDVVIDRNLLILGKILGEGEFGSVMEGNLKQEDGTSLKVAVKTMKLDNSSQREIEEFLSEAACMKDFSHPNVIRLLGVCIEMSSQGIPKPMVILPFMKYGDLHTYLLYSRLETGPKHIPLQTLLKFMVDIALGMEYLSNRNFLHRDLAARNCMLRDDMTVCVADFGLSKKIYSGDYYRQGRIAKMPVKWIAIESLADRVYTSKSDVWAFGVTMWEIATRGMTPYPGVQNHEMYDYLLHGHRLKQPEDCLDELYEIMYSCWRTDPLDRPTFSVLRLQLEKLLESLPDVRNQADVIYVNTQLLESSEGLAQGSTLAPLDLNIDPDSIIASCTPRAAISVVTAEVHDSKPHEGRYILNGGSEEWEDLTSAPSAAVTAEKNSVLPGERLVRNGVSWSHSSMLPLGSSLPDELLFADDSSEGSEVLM

Sequence	phosphorylation enrichment
ELANLYHHVCM [BICD2_Y538]	1.24
GVRFTYTIDGS [DCX_Y105_I104T_YF]	0.423
EQLRAYLEGTC [HLA-C_Y183]	0.403
SLMNQYVNKEF [RAB7A_Y28_K32E]	0.383
KGSEGYLAAIF [NF1_Y2503_T2507I_YF]	0.422
DLSEVYKPRRK [CCDC93_Y176]	0.634
GIYKDYYRYNF [PLA2G2D_Y85_S80G]	4.72
KDFETYQSFQN [CTNND2_Y1157_P1159S_YF]	0.484
RRNEEYCLLAS [ITK_Y198_D202A]	0.703
PVGVLYKVKVY [PTS_Y128]	0.669
KGEDFYCVTFH [FHL1_Y149_C153Y_YF]	2.82
RRIHSYRGRLW [VHL_Y112_H115R]	0.538
FGLQAYTEVKT [ALDH2_Y502_YF]	0.452
PELINYHQHFS [BTK_Y361_N365Y_YF]	0.401
LREKVYVSLEA [RXRA_Y397_A398V]	0.568
ADKSVYLMGLN [MYH7_Y386_A385V]	0.379
SLNEVYTKNKT [MSH2_Y563_E562V]	0.423

Sequence	phosphorylation enrichment
DGTESYHTVSS [PLK1_Y462_L463H]	0.299
PTTKTYFPHFF [HBA1_Y43_D48Y_YF]	0.607
LKALHYMVQTS [SACS_Y3367]	0.385
TIQIMYGCDVG [HLA-A_Y123]	0.439
GKSFIYAAFHA [KCNT1_Y563_T562I]	1.72
GSSSSCGQHGS [HRNR_Y517_Y517C]	0.294
RRIHSYRGQLW [VHL_Y112_H115Q]	0.535
KSVVTYSPTTG [ITGB3BP_Y32_I30V]	0.423
KILGRYFETSS [PAX2_Y72_G76S_YF]	0.358
DTDSSYCIPIA [GAB1_Y373_T377I]	1.16
CKRQFYLFKGK [RSPO4_Y112_YF]	0.489
ESDYTYSSSYE [SRPK2_Y427]	0.486
DRQASYLDKVR [KRT16_Y131_L128Q]	0.388
CGPLLYGLVHQ [PRKCG_Y122_S119P]	4.98
PNQRRYVFFFS [PTEN_Y174_S170N_YF]	0.491
GHEFIYVDRMQ [PDGFRB_Y581_P584R_YF]	0.479
